# Results reported in patent US20220143148A1, “COMPOSITIONS AND METHODS FOR MODULATING CGRP SIGNALING TO REGULATE INTESTINAL INNATE LYMPHOID CELLS” (The Broad Institute, Inc., priority 2019, published 2022).
# B1: OVA (protein, UniProt P01012 2-386, looked up)
# Ovalbumin: GSIGAASMEFCFDVFKELKVHHANENIFYCPIAIMSALAMVYLGAKDSTRTQINKVVRFDKLPGFGDSIEAQCGTSVNVHSSLRDILNQITKPNDVYSFSLASRLYAEERYPILPEYLQCVKELYRGGLEPINFQTAADQARELINSWVESQTNGIIRNVLQPSSVDSQTAMVLVNAIVFKGLWEKAFKDEDTQAMPFRVTEQESKPVQMMYQIGLFRVASMASEKMKILELPFASGTMSMLVLLPDEVSGLEQLESIINFEKLTEWTSSNVMEERKIKVYLPRMKMEEKYNLTSVLMAMGITDVFSSSANLSGISSAESLKISQAVHAAHAEINEAGREVVGSAEAGVDAASVSEEFRADHPFLFCIKHIATNAVLFFGRCVSP
# Tested on: small intestinal immune cells
# Assay: Droplet-based scRNA-seq of small intestinal immune cells (LP and PP), OVA vs PBS, clustering and differential expression
# Assay type: in vivo, mouse
# Conditions: cluster ID 4, PP
# Text: To comprehensively characterize small intestinal immune cells, Applicants generated scRNA-Seq profiles for 58,067 immune cells collected from lamina propria (LP) and Peyer's patch (PP) regions at steady state and after induction of a type 2 inflammatory reaction to ovalbumin (OVA) (Brandt et al., 2003) (FIGS. 1A and 8A). To ensure sufficient representation of rare cells, Applicants combined a normalization strategy—removing by flow sorting either a portion of IgD+ naïve B cells, which are the most abundant cell type in PPs, or all CD19+ and CD3+ T cells (FIG. 8B, Methods)—with profiling of a sufficiently large number of cells number (P>0.99 to recover at least 15 cells from each cluster, Methods) by massively parallel scRNA-seq (Haber et al., 2017) (Methods). Applicants obtained 36,797 and 21,270 high quality cells passing initial filtering (Methods) from PP and LP regions, respectively.
# Overall, Applicants annotated 27 cell subsets across the two compartments, spanning T cells, B cells, ILCs, dendritic cells (DCs), myeloid cells and stromal cells, in frequencies ranging from 0.07% to 14%. Briefly, Applicants first partitioned the cells from the PP regions by unsupervised clustering (Methods) into 46 clusters, retained the 97% of cells that were robustly assigned cell identities in each cluster (Methods), assigned the cells from the LP regions to the 46 clusters using a classifier (Methods), and visualized the data with scvis (Ding et al., 2018), a deep generative model-based method (FIGS. 1B and 8C, Methods). Next, Applicants identified genes that were differentially expressed between the cells in each cluster and the remaining cells (Table 1, Methods), as well as between pairs of clusters (Table 2), to elucidate identities of similar cell types/states. Applicants excluded from downstream analysis clusters mostly consisting of contaminants from epithelium, likely doublets, or cells with a small number of Unique Molecular Identifiers (UMIs) (FIGS. 1C and 8D), or lacking distinct markers (Methods). Altogether, Applicants retained 27 clusters spanning 85% of the cells and each associated with distinct marker genes (FIG. 8E, Methods).
# To induce allergic reaction to OVA, 6 to 7 weeks old mice were sensitized twice, two weeks apart, with 50 μg of OVA plus 1 mg of aluminum potassium sulfate adjuvant via intraperitoneal injection. Two weeks later, mice were orally administered with 50 mg of OVA on every other day for a total of five times. 1 μg of α-CGRP peptide was administered simultaneously when indicated. Mice were deprived of food for 3-4 hours in cages with wood chip bedding for limiting antigen degradation in the stomach before each intragastric challenge.
# Isolation of cells from Peyer's patches (PPs). Peyer's patches (PPs) were carefully dissected from the small intestine under a stereo microscope using a fine scissor, pierced once with a fine forcep. Tissues were digested in freshly made digestion buffer (RPMI-1640 containing 100 μg/ml Liberase™ and 50 μg/ml DNase I at 37° C. on a roto-mixer. After 15 min, tissues were very gently mixed using a 1 ml pipette. The supernatant was collected and added to ice-cold MACS buffer (pH 7.4; PBS plus 2% FCS and 2 mM EDTA). Pre-warmed (37° C.) fresh digestion buffer was added to the remaining tissues. After rotation at 37° C. for 15 min, the mixture was vigorously mixed using a 1 ml pipette for 1 min. Supernatants from the two steps were combined and passed through 70 μm filters and stained for FACS (below).
# Isolation of cells from the lamina propria (LP). The small intestines were opened longitudinally and washed in ice-cold PBS. For scRNA-seq, roughly 0.5 cm of fragments from each of the distal, middle and proximal regions without visible PPs were collected. Epithelial cells were dissociated by tissue rotation in pre-warmed (37° C.) PBS containing 10 mM EDTA at 37° C. for 15 min, followed by additional incubation on ice for 15 min. Tissues were then shaken vigorously. […]
molecule,measurement,setting,value
B1,H2-T23: percentage of expressing cells in OVA-treated group,,0.264
same,Herpud1: percentage of expressing cells in OVA-treated group,,0.33
same,Icos: percentage of expressing cells in OVA-treated group,,0.236
same,Il2ra: percentage of expressing cells in OVA-treated group,,0.457
same,Il18r1: percentage of expressing cells in OVA-treated group,,0.605
same,Irf2: percentage of expressing cells in OVA-treated group,,0.306
same,Irs2: percentage of expressing cells in OVA-treated group,,0.149
same,Itgav: percentage of expressing cells in OVA-treated group,,0.175
same,Klf13: percentage of expressing cells in OVA-treated group,,0.417
same,Klrk1: percentage of expressing cells in OVA-treated group,,0.133
same,Leng9: percentage of expressing cells in OVA-treated group,,0.128
same,Map3k14: percentage of expressing cells in OVA-treated group,,0.133
same,Mast4: percentage of expressing cells in OVA-treated group,,0.467
same,Mbnl2: percentage of expressing cells in OVA-treated group,,0.162
same,Minos1: percentage of expressing cells in OVA-treated group,,0.768
same,Morf4l2: percentage of expressing cells in OVA-treated group,,0.317
same,Neat1: percentage of expressing cells in OVA-treated group,,0.502
same,Nedd8: percentage of expressing cells in OVA-treated group,,0.781
same,Plekhg1: percentage of expressing cells in OVA-treated group,,0.231
same,Ppp1r16b: percentage of expressing cells in OVA-treated group,,0.302
same,Ppp2ca: percentage of expressing cells in OVA-treated group,,0.336
same,Ptger2: percentage of expressing cells in OVA-treated group,,0.299
same,Ptpn7: percentage of expressing cells in OVA-treated group,,0.337
same,Raf1: percentage of expressing cells in OVA-treated group,,0.232
same,Ramp3: percentage of expressing cells in OVA-treated group,,0.224
same,Rassf5: percentage of expressing cells in OVA-treated group,,0.31
same,Rcn2: percentage of expressing cells in OVA-treated group,,0.258
same,Rel: percentage of expressing cells in OVA-treated group,,0.19
same,Rgs1: percentage of expressing cells in OVA-treated group,,0.498
same,Rgs3: percentage of expressing cells in OVA-treated group,,0.282
same,Rnf19b: percentage of expressing cells in OVA-treated group,,0.427
same,Rpa3: percentage of expressing cells in OVA-treated group,,0.175
same,S100a6: percentage of expressing cells in OVA-treated group,,0.603
same,S100a10: percentage of expressing cells in OVA-treated group,,0.866
same,Saraf: percentage of expressing cells in OVA-treated group,,0.557
same,Sat1: percentage of expressing cells in OVA-treated group,,0.744
same,Scn1b: percentage of expressing cells in OVA-treated group,,0.314
same,Sec11a: percentage of expressing cells in OVA-treated group,,0.376
same,Serpina3g: percentage of expressing cells in OVA-treated group,,0.587
same,Serpinb6b: percentage of expressing cells in OVA-treated group,,0.2
same,Ssna1: percentage of expressing cells in OVA-treated group,,0.294
same,Taf7: percentage of expressing cells in OVA-treated group,,0.144
same,Taf10: percentage of expressing cells in OVA-treated group,,0.297
same,Tagap: percentage of expressing cells in OVA-treated group,,0.461
same,Tcrg-C1: percentage of expressing cells in OVA-treated group,,0.36
same,Tgoln1: percentage of expressing cells in OVA-treated group,,0.286
same,Timm13: percentage of expressing cells in OVA-treated group,,0.592
same,Tnf: percentage of expressing cells in OVA-treated group,,0.245
same,Trim8: percentage of expressing cells in OVA-treated group,,0.223
same,Trps1: percentage of expressing cells in OVA-treated group,,0.17
same,Tsc22d3: percentage of expressing cells in OVA-treated group,,0.489
same,Tspan32: percentage of expressing cells in OVA-treated group,,0.395
same,Ttc19: percentage of expressing cells in OVA-treated group,,0.152
same,Tuba4a: percentage of expressing cells in OVA-treated group,,0.156
same,Tubb4b: percentage of expressing cells in OVA-treated group,,0.347
same,Txk: percentage of expressing cells in OVA-treated group,,0.529
same,Vegfa: percentage of expressing cells in OVA-treated group,,0.131
same,VgIl4: percentage of expressing cells in OVA-treated group,,0.338
same,Zc3hav1: percentage of expressing cells in OVA-treated group,,0.145
same,Zfand5: percentage of expressing cells in OVA-treated group,,0.252
same,1600014C10Rik: LN (average fold change),OVA vs PBS,0.467
same,2010300C02Rik: LN (average fold change),OVA vs PBS,0.310
same,2310001H17Rik: LN (average fold change),OVA vs PBS,0.484
same,4921524J17Rik: LN (average fold change),OVA vs PBS,0.531
same,Alyref: LN (average fold change),OVA vs PBS,−0.564
same,Amd1: LN (average fold change),OVA vs PBS,−0.353
same,Asb2: LN (average fold change),OVA vs PBS,0.320
same,Azin1: LN (average fold change),OVA vs PBS,−0.472
same,Bin3: LN (average fold change),OVA vs PBS,0.452
same,Bzw1: LN (average fold change),OVA vs PBS,−0.190
same,Cacybp: LN (average fold change),OVA vs PBS,0.291
same,Cd69: LN (average fold change),OVA vs PBS,−0.153
same,Cdkn1a: LN (average fold change),OVA vs PBS,−0.202
same,Clec2d: LN (average fold change),OVA vs PBS,0.489
same,Cwc25: LN (average fold change),OVA vs PBS,−0.463
